The results in this text go back to the RNAGym collection of RNA variant scans (doi:10.7554/elife.80360).

First the molecules themselves.
B1: Twister Ribozyme (parent)
chain: AACACUGCCAAUGCCGGUCCCAAGCCCGGAUAAAAGUGGAGGGGGCGG

The series covers variants of B1. The experiment in a line: self-cleavage, relative activity (ratio to wild type); higher = more cleavage; co-transcriptional.
For the variant G16U G47U, the self-cleavage was found to be 0.653.
C19G A22U: the self-cleavage is 0.0871.
Turning to U31G A40C, the self-cleavage stood at 0.224.
For A23C A30G the value was 0.385; for G38C C46A, 0.791.
For C9G G36U, the self-cleavage is 0.137.
Consider G13A A34C, for which the self-cleavage was 0.173.
For A11C G39C the value was 0.208.
The value for C20U A23G was 0.121; that for C19G G28U was 0.212.
The value for A1G G41A was 0.176; that for C25A G39U was 0.115; that for A11C A40U was 0.153.
A4C C21A: the self-cleavage was determined as 0.105.
